Assay results from article PMC10620092, “Structure and electromechanical coupling of a voltage-gated Na^+/H^+ exchanger” (Nature, 2023).

Biological target: the molecule itself
Test: cryo-EM structure; 3 mg/ml SLC9C1 in GDN detergent (50 mM Tris-HCl pH 7.5, 150 mM NaCl, 0.02% GDN); C2 symmetry, symmetry expansion and masked refinement for the VSDs

B1: Strongylocentrotus purpuratus (sea urchin) SLC9C1, full length, GFP-TwinStrep tag removed by TEV (natural protein, UniProt A3RL54 30-1325, looked up)
chain: SSGGSGHTPTTQATHADDHDLTTHNGTEEHDDGHDDGHDDLHAHAPKVIVFISGSCLFGAISRSLFKKLPIPYTVVLLILGAILGVVASNVPLVEEHTRDVAHMDPHVLLQIFLPVLIFESAFAMDVHTFMRSFSQVCILALFGLVVASVLTAVLAMNLFNYNWNFSEAMMFGAIMSATDPVAVVALLKDLGASKQLGTIIEGESLLNDGCAIVIFNVFMKMVFFPQLTSTVGQNVLYFLQVAVAGPLWGYAVAKVTVFFLSHIFNDALVEITITLAATYLTYYIGDIWLEVSGVLAVVVLGLIVNAEKTSISPEVEVFLHRFWEMLAYLANTLIFMMVGVVVTQKALVAVDKMDWFYLIILYLAITIIRGMVISLFSPILSRIGYGLTWRNAVIMTWGGLRGAVGLALALVVENLAGNDVIGSKFLFHTAGIVVLTLVINATTIQTLLRILGMSDISIPKRLAMAGAVRRIHEGQNRTLNMLKSDRFLADADWDIATAACEISDPYSALSDDENAPADELTLGERKSVCPGCKAMVPNEPSPREFADMMEEARLRMLKAEKISYWKQFEHGMLAREALRLLVQHAEVAADEKDQFILVDDLKKSWQIKGIYPWLKRKLEDLISEKKIAAIPMPKYKLGKLMYKICHHMAFEVTINIAIVLNIVPIIMEFVVQDKMASVSTMAAPGSTVSSEPSSLQKIEDALRISNYVFFVIYAIEAIVKILGLGRHYIVSHWNKFDAFILVVALVDIIIAETLLKGSITINLSSIKVVKLFRLLRGLRMLRLTKALIPKLILVVNGKINNQLSLGYDVGKGYIIGEEEVGKIIDRMVDNKKILRELKHISETGRLQVVKELGLLQREHPGIAVSVKTRQAIRTILNHSRETIHELQGAGLLDEMEAHKLELTVEIKMKRLMNAPSSIPPPPPENLLKNVSWLAGDMKLIDFIKARASLLHFDYGEVIVREGDESDGLFLIVSGLVKLYGKSAFLDHDNPPVTAGSEENEVFEDYLTVGNVIGEMGVLTKKPRNATVTCETTVQVYFITAEDMNIAIDTFTLYPSLEYRLWRVVAIRIATPLIMEQMAFQGWTQEKVKLHLERGYLVDLAESHFQFNIDATLEDVILINGTAYNAHTREEIRSPCLISRTVHKLTFQYTATEEPRLFVVRNAEYNGPILDGRLDVDSKRSLISITEISSNMCLKHAAELRQKNSKVMLSRKSSGAAAKEEEDCIPNTSDVEQAAGVSPSVPTKTTPKPKSFLPSLGLSMSKERVNGEAVEESPVKTKQGEETPETEEGAAPRVNV
notes: synthesised gene in pcDNA3.1(+); A TEV recognition site follows the protein; what is left of it after cleavage stays at the C terminus; also called sperm-specific Na+/H+ exchanger SLC9C1; SLC9C1(WT); source: for one sample further reconstituted into MSP1E2 nanodiscs with yeast polar lipids; not shown: eGFP, C-terminal, cleaved; TwinStrep, C-terminal, cleaved; His8, C-terminal, cleaved
  stoichiometry N: 2
